The test has as its target T1, synthetic peptide HRCLQQLCCRKKPG
T1 construct: Variant of P2X7 residues 491-504, used as the counter-screen peptide; also called the wild type SNP at position 496 which is Q
T1 peptide: HRCLQQLCCRKKPG
The experiment in a line: in-vitro cross-reaction of hybridoma monoclonal antibodies against the synthetic peptide. From the text: For the generation of monoclonal antibodies, hybridoma cell lines expressing the desired antibody were produced. Techniques for the production of monoclonal antibodies are well known in the art. Animals were presented with the carboxyl-terminal antigen sequence […] conjugated to KHL. Murine hybridoma cells were produced and screened according to standard protocols. Monoclonal antibodies harvested after clonal selection of the hybridomas expressed from the variable regions of the monoclonal antibodies raised against the antigen, were tested for their capacity to bind this antigen.

From US20250353901A1 (ON TARGET MOLECULES BIOTECH, published 2025) come the findings set out here.

B1: Clone 3: 6H5.C10 Isotype Ig1 k (antibody, V domains shown)
VH: QVTLKESGPGILQPSQTLSLTCSFSGFSLSTFGMGVGWIRQPSGKGLEWLAHIWWDDYKYYNPALKSRLTISKDTSKNQVFLKIANVDTADTATYYCARISYYGSSYLDYWGQGTTLTVSS
VL: DVVMTQTPLSLPVSLGDQASISCRSSQSLVHSNGNTYLHWYLQKPGQSPKLLIYKVSNRFSGVPDRFSGSGSGTDFTLKISRVEAEDLGVYFCSQTTHVPYTFGGGTKLEIKR
notes: Murine hybridoma monoclonal antibody, isotype printed as 'Ig1 k'
As to B1, the binding result is given as “no binding”.
